Measured values as given in patent US20250152722A1, “DRUG CONJUGATE OF GLUCOCORTICOID” (SHANGHAI SHENGDI PHARMACEUTICAL CO., LTD., priority 2022, published 2025).

T1: human IL-4Rα protein (Homo sapiens, UniProt P24394)
T1 construct: purchased SinoBiological 10402-H08H-B
T1 sequence (P24394 26-232 limits assumed): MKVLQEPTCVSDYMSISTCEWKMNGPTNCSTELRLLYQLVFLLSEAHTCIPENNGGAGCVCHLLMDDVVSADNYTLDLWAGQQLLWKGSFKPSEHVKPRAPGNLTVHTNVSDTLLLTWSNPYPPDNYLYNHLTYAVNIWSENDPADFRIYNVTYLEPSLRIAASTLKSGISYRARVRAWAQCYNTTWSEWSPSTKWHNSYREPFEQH

T2: human IL-4Rα expressed on cells (human, UniProt P24394 26-825)
T2 construct: whole, on cells; also called IL-4Rα on TF-1 cells; cells expressing human IL-4Rα
T2 sequence (looked up): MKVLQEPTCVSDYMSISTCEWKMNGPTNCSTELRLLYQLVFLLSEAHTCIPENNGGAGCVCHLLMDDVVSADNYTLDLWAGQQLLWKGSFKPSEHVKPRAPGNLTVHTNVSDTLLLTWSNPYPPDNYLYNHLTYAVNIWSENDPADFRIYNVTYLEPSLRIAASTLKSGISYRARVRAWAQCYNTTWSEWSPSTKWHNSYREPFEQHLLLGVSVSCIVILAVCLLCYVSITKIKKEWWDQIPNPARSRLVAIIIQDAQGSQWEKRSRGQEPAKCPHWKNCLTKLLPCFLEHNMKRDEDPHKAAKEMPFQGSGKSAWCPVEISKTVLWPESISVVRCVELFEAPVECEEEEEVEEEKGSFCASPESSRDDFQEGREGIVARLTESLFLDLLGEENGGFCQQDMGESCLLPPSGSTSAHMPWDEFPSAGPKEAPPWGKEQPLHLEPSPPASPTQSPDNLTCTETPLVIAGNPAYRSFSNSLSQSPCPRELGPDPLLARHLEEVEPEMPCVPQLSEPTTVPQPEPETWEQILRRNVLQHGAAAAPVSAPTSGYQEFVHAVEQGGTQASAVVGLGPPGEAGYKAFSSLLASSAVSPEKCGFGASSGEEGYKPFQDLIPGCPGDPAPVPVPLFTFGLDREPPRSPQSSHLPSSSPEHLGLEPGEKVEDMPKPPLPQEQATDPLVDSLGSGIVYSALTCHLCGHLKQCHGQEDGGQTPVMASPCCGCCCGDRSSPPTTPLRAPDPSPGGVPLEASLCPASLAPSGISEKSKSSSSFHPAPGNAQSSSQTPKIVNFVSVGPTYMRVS

T3: Biotin-labeled human IL-4Rα protein (SinoBiological, CAT #10402-H08H-B) (human, UniProt P24394 26-232, Biotin-labeled (sites not given))
T3 construct: Bought reagent, captured on an SA sensor chip; also called hIL-4Rα; human IL-4Rα antigen protein
T3 sequence (looked up): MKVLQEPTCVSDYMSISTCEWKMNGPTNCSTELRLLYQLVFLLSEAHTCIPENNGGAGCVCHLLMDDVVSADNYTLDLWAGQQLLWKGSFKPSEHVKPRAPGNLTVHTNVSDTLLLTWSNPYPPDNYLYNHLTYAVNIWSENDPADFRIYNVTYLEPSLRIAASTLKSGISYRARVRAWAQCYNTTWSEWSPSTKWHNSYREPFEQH


Tests used:
[1] = Pharmacokinetic testing on mouse model after intratracheal nebulization; assay type: in vivo; settings: after ADC-2 100 μg i.t., mice
Method: C57BL6/J mice, 8 weeks old, male, Cyagen (Suzhou) Biosciences Co., Ltd.
Mice were given medication via intratracheal nebulization (i.t.). At different time points post-administration, 300-400 μL of blood was collected from a mandibular blood vessel, left to stand for 2 h, and then centrifuged at 7500 rpm and 4° C. for 10 min, and the serum was collected. Following the blood collection, the mice were anesthetized and immobilized, the neck muscles of the mice were bluntly isolated to expose the trachea, and an incision was horizontally made in the trachea. A lavage syringe needle was slowly inserted, the normal saline pre-loaded, pre-cooled at 4° C., was slowly injected into the lung tissue for lavage, and the bronchoalveolar lavage fluid (BALF) was collected. Lavage was performed 3 times, with 300 μL of normal saline used for each of the first two lavages and 400 μL for the third. The collected bronchoalveolar lavage fluid was centrifuged at 1000 rpm and 4° C. for 10 min, and the supernatant was collected. After the mice were euthanized, their thoracic cavities were opened, and the complete lung tissues were isolated and collected. The tissues were rinsed with PBS to remove blood stains on the surfaces, and the surface PBS was dried off with paper towels before weighing the lung tissues. […] The protein concentrations in the homogenates were measured (Pierce, 23227). […]

human IL-4Rα protein = target: T1, human IL-4Rα protein; assay: SPR affinity for human IL-4Rα antigen protein (Biacore 8K); assay type: binding; settings: captured hIL-4Rα
Method: An SA sensor chip (Cytiva) was placed in Biacore 8K (Cytiva), and Biotin-labeled human IL-4Rα protein (SinoBiological, CAT #10402-H08H-B) was captured on the SA sensor chip. HBS-EP+buffer solution (10 mM HEPES, 150 mM NaCl, 3 mM EDTA, 0.05% surfactant P20) was used as the mobile phase. Each test protein was serially diluted 2-fold with HBS-EP+buffer solution and then injected as an analyte. […] Analysis was performed using Biacore 8K evaluation software (Cytiva), and data on the affinities of the test proteins were obtained.

[2] = target: T2, human IL-4Rα expressed on cells; assay: flow cytometry on TF-1 cells, anti-hFab-FITC secondary antibody
Method: (§1) TF-1 and Karpas299 cells in the logarithmic growth phase were harvested and counted, and the cell density was adjusted. The cells were inoculated onto a 96-well round-bottom plate at 1×10⁵ cells/well. […] After the antibodies were washed off with FACS buffer (PBS containing 2% FBS), a fluorescently labeled secondary antibody was added for staining. […] The cells were incubated with the secondary antibodies at 4° C. for 30 min, then washed with FACS buffer twice, and assayed on a flow cytometer (BD, FACS Celesta), and the results were analyzed using FlowJo (FlowJo, LLC) software.

[3] = target: T2, human IL-4Rα expressed on cells; assay: flow cytometry, whole-cell binding to Karpas 299 cells expressing IL-4Rα; FITC anti-human IgG (Fab-specific) secondary antibody
Method: as §1

[4] = target: T2, human IL-4Rα expressed on cells; assay: cell-based or functional assay
[5] = target: T3, Biotin-labeled human IL-4Rα protein …; assay: SPR, Biacore 8K, biotinylated hIL-4Rα captured on SA chip, test protein as analyte
Method: HBS-EP+buffer solution (10 mM HEPES, 150 mM NaCl, 3 mM EDTA, 0.05% surfactant P20) was used as the mobile phase. Each test protein was serially diluted 2-fold with HBS-EP+buffer solution and then injected as an analyte. The flow rate was set to 30 μL/min. […] Analysis was performed using Biacore 8K evaluation software (Cytiva), and data on the affinities of the test proteins were obtained.

Molecule	EC50 [2]	EC50 (read off the curve) [3]	IC50 value (nM) for blocking of IL-4 signaling pathway (HEK-Blue IL-4/IL-13 STAT6-SEAP reporter cells, recombinant human IL-4) [4]	IC50 value (nM) for blocking of IL-13 signaling pathway (HEK-Blue IL-4/IL-13 STAT6-SEAP reporter cells, recombinant human IL-13) [4]	also measured
CCCC1O[C@@H]2C[C@H]3[C@@H]4CCC5=CC(=O)C=C[C@]5(C)[C@H]4[C@@H](O)C[C@]3(C)[C@]2(C(=O)CO)O1 (stereo partly drawn) [Free budesonide, budesonide]	–	–	–	–	exposure of budesonide in serum, BALF and lung tissue (in words) [1]: low in all these tissues
AZD1402-TAG: protein sequence from SEQ ID NO: 1 in WO2020200960A1 with a His tag fused at the C-terminus (SEQ ID NO: 52)	–	–	–	–	Koff (human IL-4Rα protein): 0.000102 s⁻¹; Kon (human IL-4Rα protein): 4.77e+06 M⁻¹ s⁻¹
25G7-Fab (Fab, V domains shown, Heavy chain is VH-CH1 (hu25G7-24-IgG4 VH-CH1), light chain is hu25G7-A LC; also called naked antibody 25G7-Fab; antibody 25G7-Fab) VH: EVQLVESGGGLVQPGGSLRLSCAASGFTFSDYGMHWVRQAPGKGLEWVAFISSGSSIIYYADIVKGRSTISRDNAKNTLYLQMNSLRAEDTAVYYCTRGNKRGFFDYWGQGTLVTVSS VL: EIVLTQSPATLSLSPGERATLSCRASSSVPYMYWYQQKPGQAPRLLIYLTSNLASGIPARFSGSGSGTDFTLTISSLEPEDFAVYYCQQWRAYPPMLTFGGGTKVEIKR	0.243 nM	~0.2 nM	0.61 nM	14.6 nM	Kd [5]: 0.0439 nM; koff [5]: 0.000206 s⁻¹; kon [5]: 4.69e+06 M⁻¹ s⁻¹
hu25G7 (antibody, human IgG4 S228P, kappa, V domains shown, Full-length humanized antibody) VH: EVQLVESGGGLVQPGGSLRLSCAASGFTFSDYGMHWVRQAPGKGLEWVAFISSGSSIIYYADIVKGRSTISRDNAKNTLYLQMNSLRAEDTAVYYCTRGNKRGFFDYWGQGTLVTVSS VL: EIVLTQSPATLSLSPGERATLSCRASSSVPYMYWYQQKPGQAPRLLIYLTSNLASGIPARFSGSGSGTDFTLTISSLEPEDFAVYYCQQWRAYPPMLTFGGGTKVEIKR	0.247 nM	~0.1 nM	–	–	–
antibody-drug conjugate ADC-2 (other, budesonide linker-drug (Compound 2) coupled after TCEP reduction of 25G7-Fab; positions and drug loading not given; budesonide linker-drug (Compound 2, maleimide-(PEG)4-CH2CH2C(O)-Gly-Gly-Phe-Gly-NHCH2-O-budesonide) coupled after TCEP reduction of 25G7-Fab; positions and drug loading not given) heavy: EVQLVESGGGLVQPGGSLRLSCAASGFTFSDYGMHWVRQAPGKGLEWVAFISSGSSIIYYADIVKGRSTISRDNAKNTLYLQMNSLRAEDTAVYYCTRGNKRGFFDYWGQGTLVTVSSASTKGPSVFPLAPCSRSTSESTAALGCLVKDYFPEPVTVSWNSGALTSGVHTFPAVLQSSGLYSLSSVVTVPSSSLGTKTYTCNVDHKPSNTKVDKRV light: EIVLTQSPATLSLSPGERATLSCRASSSVPYMYWYQQKPGQAPRLLIYLTSNLASGIPARFSGSGSGTDFTLTISSLEPEDFAVYYCQQWRAYPPMLTFGGGTKVEIKRTVAAPSVFIFPPSDEQLKSGTASVVCLLNNFYPREAKVQWKVDNALQSGNSQESVTEQDSKDSTYSLSSTLTLSKADYEKHKVYACEVTHQGLSSPVTKSFNRGEC	–	~0.3 nM	0.68 nM	10.6 nM	–
